Reference: patent publication US20230203129A1 (BRACCO IMAGING S P A, published 2023)

Tests used:
Assay in all cases: ELISA during and after library selection
murine serum albumin = biological target: T1, murine serum albumin (murine, UniProt P07724 25-608)
T1 construct: also called MSA; mouse serum albumin

bovine serum albumin = biological target: T2, bovine serum albumin (bovine, UniProt P02769 25-607)
T2 construct: also called BSA

human serum albumin = biological target: T3, human serum albumin (human, UniProt P02768 25-609)
T3 construct: also called HSA
T3 sequence (P02768 25-609 limits assumed): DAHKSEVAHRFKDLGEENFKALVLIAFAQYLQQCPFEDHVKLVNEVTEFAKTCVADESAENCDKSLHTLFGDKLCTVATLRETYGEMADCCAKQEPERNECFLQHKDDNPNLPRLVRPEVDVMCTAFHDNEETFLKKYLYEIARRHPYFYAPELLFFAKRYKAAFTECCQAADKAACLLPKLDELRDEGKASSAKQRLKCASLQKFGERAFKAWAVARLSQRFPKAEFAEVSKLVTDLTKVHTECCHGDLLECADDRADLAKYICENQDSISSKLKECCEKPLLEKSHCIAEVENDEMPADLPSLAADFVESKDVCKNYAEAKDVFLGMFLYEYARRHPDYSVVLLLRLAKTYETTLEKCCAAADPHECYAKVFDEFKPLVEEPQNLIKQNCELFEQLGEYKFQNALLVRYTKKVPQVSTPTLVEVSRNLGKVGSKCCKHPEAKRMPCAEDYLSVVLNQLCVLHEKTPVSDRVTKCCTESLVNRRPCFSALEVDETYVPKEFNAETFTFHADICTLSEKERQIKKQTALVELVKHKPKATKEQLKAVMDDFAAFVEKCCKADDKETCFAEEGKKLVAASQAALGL

T2 sequence (P02769 25-607 limits assumed): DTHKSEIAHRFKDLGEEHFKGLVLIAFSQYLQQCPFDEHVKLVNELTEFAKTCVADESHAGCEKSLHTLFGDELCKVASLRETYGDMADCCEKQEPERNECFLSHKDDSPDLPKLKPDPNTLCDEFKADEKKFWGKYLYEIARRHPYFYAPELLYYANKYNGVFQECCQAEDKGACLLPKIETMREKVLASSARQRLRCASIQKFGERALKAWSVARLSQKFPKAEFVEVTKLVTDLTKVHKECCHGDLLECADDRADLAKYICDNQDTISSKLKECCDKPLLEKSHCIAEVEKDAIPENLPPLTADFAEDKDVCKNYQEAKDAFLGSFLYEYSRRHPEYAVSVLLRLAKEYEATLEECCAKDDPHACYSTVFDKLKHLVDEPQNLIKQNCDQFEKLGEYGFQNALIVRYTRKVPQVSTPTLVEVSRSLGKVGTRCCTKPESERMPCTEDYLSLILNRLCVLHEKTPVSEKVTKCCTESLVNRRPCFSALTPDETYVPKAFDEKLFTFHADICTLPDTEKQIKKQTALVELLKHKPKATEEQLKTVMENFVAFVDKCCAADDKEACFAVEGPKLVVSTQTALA

binding result (murine serum albumin): no binding | binding result (bovine serum albumin): no binding | binding result (human serum albumin): no binding
B1: affitin Aff03 (designed binder)
chain: VKVKFGHMGEEKEVDTSKIYAVNRAGKFVHFAYDDNGKFGSGSVPEKDAPKELLDMLARAEREK
